Data taken from US20190100598A1 (CELLDEX THERAPEUTICS, published 2019).

Tests used:
[1] = target: full-length, wild-type human KIT (human, UniProt P10721 26-976); experiment: cell-based or functional assay
[2] = target: T1, recombinant D4 domain polypeptide of human KIT (V308 to K412, with 6xHis tag) (human, UniProt P10721 26-412); experiment: solid phase ELISA, antigen coated on plate; D4 region alone
T1 construct: The end residue 144 was computed (33 + 105 + 6); also called D4 region; D4 domain of human KIT

[3] = target: T2, recombinant D5 domain polypeptide of human KIT (N410 to H515, with 5xHis tag) (human, UniProt P10721 26-519); experiment: solid phase ELISA, D5 antigen coated on the plate
T2 construct: The end residue 144 was computed (33 + 106 + 5); also called D5 region; D5 domain of human KIT

[4] = target: T3, recombinant KIT D4/D5 polypeptide (D4/D5 region of human KIT, V308 to H515, with 5xHis tag) (human, UniProt P10721 26-519); experiment: competition solid phase ELISA on KIT D4/D5 antigen; reference 37M titrated alone, no competitor
T3 construct: The end residue 246 was computed from the stated composition (33 + 208 + 5); This is the glycosylated (untreated) form; also called KIT D4/D5 antigen; KIT immunogen

[5] = target: T3, recombinant KIT D4/D5 polypeptide …; experiment: competition solid phase ELISA on KIT D4/D5 antigen; reference 37M titrated with competitor antibody 37C at 10 nM

Sequence of full-length, wild-type human KIT (P10721 other isoform, or with tags, fused parts or gaps limits assumed): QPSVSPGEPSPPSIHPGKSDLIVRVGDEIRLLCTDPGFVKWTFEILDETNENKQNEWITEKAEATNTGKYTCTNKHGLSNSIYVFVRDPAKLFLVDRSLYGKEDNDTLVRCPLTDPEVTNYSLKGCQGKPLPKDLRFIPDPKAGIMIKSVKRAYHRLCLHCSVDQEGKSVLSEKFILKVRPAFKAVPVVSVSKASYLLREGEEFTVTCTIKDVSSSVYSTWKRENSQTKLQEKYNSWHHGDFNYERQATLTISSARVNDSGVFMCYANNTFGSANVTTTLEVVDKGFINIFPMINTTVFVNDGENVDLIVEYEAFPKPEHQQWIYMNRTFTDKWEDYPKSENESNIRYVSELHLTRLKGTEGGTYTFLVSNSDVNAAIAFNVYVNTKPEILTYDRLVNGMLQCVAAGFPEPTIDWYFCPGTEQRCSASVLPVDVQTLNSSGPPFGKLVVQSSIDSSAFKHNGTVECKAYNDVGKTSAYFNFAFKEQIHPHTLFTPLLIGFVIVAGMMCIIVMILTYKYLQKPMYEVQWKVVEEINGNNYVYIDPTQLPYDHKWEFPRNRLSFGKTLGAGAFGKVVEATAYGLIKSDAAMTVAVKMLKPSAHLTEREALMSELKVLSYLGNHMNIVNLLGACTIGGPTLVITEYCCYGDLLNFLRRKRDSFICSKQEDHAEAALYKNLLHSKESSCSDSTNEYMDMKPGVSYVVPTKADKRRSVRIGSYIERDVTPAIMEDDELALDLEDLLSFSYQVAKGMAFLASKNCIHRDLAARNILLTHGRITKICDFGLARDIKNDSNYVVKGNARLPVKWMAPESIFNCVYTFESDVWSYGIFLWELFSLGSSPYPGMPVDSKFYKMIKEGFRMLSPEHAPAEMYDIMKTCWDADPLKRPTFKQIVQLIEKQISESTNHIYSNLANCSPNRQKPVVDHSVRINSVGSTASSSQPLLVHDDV
T3 sequence (P10721 other isoform, or with tags, fused parts or gaps): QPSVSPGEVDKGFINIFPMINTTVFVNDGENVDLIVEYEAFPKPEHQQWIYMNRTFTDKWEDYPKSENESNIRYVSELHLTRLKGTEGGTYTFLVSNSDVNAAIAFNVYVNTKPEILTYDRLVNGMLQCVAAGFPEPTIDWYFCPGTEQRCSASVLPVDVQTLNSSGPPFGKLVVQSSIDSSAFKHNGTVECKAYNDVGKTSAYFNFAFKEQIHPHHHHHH
T2 sequence (P10721 other isoform, or with tags, fused parts or gaps): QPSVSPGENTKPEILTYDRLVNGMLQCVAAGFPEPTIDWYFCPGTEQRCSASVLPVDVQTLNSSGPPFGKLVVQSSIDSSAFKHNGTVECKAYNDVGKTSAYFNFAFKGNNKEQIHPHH
T1 sequence (P10721 other isoform, or with tags, fused parts or gaps): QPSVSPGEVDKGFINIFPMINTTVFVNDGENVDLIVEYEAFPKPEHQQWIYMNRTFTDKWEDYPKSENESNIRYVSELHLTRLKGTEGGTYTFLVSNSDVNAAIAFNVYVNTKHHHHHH

B1: antibody 37M (antibody, V domains shown)
VH: QVQLKQSGAELVRPGASVKLSCKASGYTFTDYYINWVKQRPGQGLEWIARIYPGSGNTYYNEKFKGKATLTAEKSSSTAYMQLSSLTSEDSAVYFCARGVYYFDYWGQGTTLTVSS
VL: DIVMTQSQKFMSTSVGDRVSVTCKASQNVRTNVAWYQQKPGQSPKALIYSASYRYSGVPDRFTGSGSGTDFTLTISNVQSEDLADYFCQQYNSYPRTFGGGTKLEIKR
notes: also called anti-KIT antibody 37M; 37M antibody
In the case of B1, the “50% inhibition concentration (IC50) of SCF-induced KIT tyrosine phosphorylation, cell-based phospho-KIT assay, CHO/KIT-WT cells” value [1] is reported as ~0.109 nM, the “IC50 of SCF-induced AKT phosphorylation (phospho-AKT assay), sorted CHO/KIT-WT cells” value [1] is reported as ~0.138 nM and the “IC50 of SCF-induced KIT tyrosine phosphorylation, separate experiment (FIG. 11A), CHO/KIT-WT cells” value [1] is reported as ~0.096 nM. For the same binder, the EC50 [2] was ~0.572 nM, the EC50 [3] was > 3000 nM and the EC50 [4] was 0.115 nM. The EC50 [5] was 2.8 nM.
